Data as given in IntAct's records for PubMed 19013157.

B1: Trimethylamine-N-oxide reductase 1 (Escherichia coli (strain K12)), P33225 (parent)
chain: MNNNDLFQASRRRFLAQLGGLTVAGMLGPSLLTPRRATAAQAATDAVISKEGILTGSHWGAIRATVKDGRFVAAKPFELDKYPSKMIAGLPDHVHNAARIRYPMVRVDWLRKRHLSDTSQRGDNRFVRVSWDEALDMFYEELERVQKTHGPSALLTASGWQSTGMFHNASGMLAKAIALHGNSVGTGGDYSTGAAQVILPRVVGSMEVYEQQTSWPLVLQNSKTIVLWGSDLLKNQQANWWCPDHDVYEYYAQLKAKVAAGEIEVISIDPVVTSTHEYLGREHVKHIAVNPQTDVPLQLALAHTLYSENLYDKNFLANYCVGFEQFLPYLLGEKDGQPKDAAWAEKLTGIDAETIRGLARQMAANRTQIIAGWCVQRMQHGEQWAWMIVVLAAMLGQIGLPGGGFGFGWHYNGAGTPGRKGVILSGFSGSTSIPPVHDNSDYKGYSSTIPIARFIDAILEPGKVINWNGKSVKLPPLKMCIFAGTNPFHRHQQINRIIEGLRKLETVIAIDNQWTSTCRFADIVLPATTQFERNDLDQYGNHSNRGIIAMKQVVPPQFEARNDFDIFRELCRRFNREEAFTEGLDEMGWLKRIWQEGVQQGKGRGVHLPAFDDFWNNKEYVEFDHPQMFVRHQAFREDPDLEPLGTPSGLIEIYSKTIADMNYDDCQGHPMWFEKIERSHGGPGSQKYPLHLQSVHPDFRLHSQLCESETLRQQYTVAGKEPVFINPQDASARGIRNGDVVRVFNARGQVLAGAVVSDRYAPGVARIHEGAWYDPDKGGEPGALCKYGNPNVLTIDIGTSQLAQATSAHTTLVEIEKYNGTVEQVTAFNGPVEMVAQCEYVPASQVKS
partner: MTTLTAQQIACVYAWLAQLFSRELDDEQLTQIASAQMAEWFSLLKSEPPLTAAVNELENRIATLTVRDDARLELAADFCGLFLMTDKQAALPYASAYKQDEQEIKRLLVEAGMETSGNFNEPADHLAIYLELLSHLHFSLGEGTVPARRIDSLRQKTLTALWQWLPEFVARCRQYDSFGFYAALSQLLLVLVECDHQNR
B2: Chaperone protein TorD (Escherichia coli (strain K12)), P36662 (parent)
chain: B1 partner

Variants of: B1
Conditions: with tord_ecoli torD

| Variant | effect of a mutation on the interaction |
| --- | --- |
| V23Q | decreasing interaction |

Variants of: B1
Conditions: with tord_ecoli torD
Remark: another data set of the same source

| Variant | effect of a mutation on the interaction |
| --- | --- |
| L27Q | disrupting interaction |

Variants of: B1
Conditions: with tord_ecoli torD
Remark: another data set of the same source

| Variant | effect of a mutation on the interaction |
| --- | --- |
| L32Q | disrupting interaction |

Variants of: B1
Conditions: with tord_ecoli torD
Remark: another data set of the same source

| Variant | effect of a mutation on the interaction |
| --- | --- |
| G28Q | decreasing interaction |

Variants of: B1
Conditions: with tord_ecoli torD
Remark: another data set of the same source

| Variant | effect of a mutation on the interaction |
| --- | --- |
| G19Q | decreasing interaction |

Variants of: B1
Conditions: with tord_ecoli torD
Remark: another data set of the same source

| Variant | effect of a mutation on the interaction |
| --- | --- |
| L31Q | disrupting interaction |

Variants of: B1
Conditions: with tord_ecoli torD
Remark: another data set of the same source

| Variant | effect of a mutation on the interaction |
| --- | --- |
| L31Q | decreasing interaction |

Variants of: B1
Conditions: with tord_ecoli torD
Remark: another data set of the same source

| Variant | effect of a mutation on the interaction |
| --- | --- |
| T22Q | increasing interaction |

Variants of: B2
Conditions: with tora_ecoli torA

| Variant | effect of a mutation on the interaction |
| --- | --- |
| Q7L | increasing interaction |
| L189Q | increasing interaction |
| F180L | increasing interaction |

Variants of: B2
Conditions: with tora_ecoli torA
Remark: another data set of the same source

| Variant | effect of a mutation on the interaction |
| --- | --- |
| L189Q | decreasing interaction |

Variants of: B2
Conditions: with tora_ecoli torA
Remark: another data set of the same source

| Variant | effect of a mutation on the interaction |
| --- | --- |
| F180L | decreasing interaction |

Variants of: B2
Conditions: with tora_ecoli torA
Remark: another data set of the same source

| Variant | effect of a mutation on the interaction |
| --- | --- |
| Q186L | increasing interaction |
